Reference: FireProtDB (doi:10.1016/0022-2836(92)90907-2)

B1: Ribonuclease, P00648 (parent)
chain: MMKMEGIALKKRLSWISVCLLVLVSAAGMLFSTAAKTETSSHKAHTEAQVINTFDGVADYLQTYHKLPDNYITKSEAQALGWVASKGNLADVAPGKSIGGDIFSNREGKLPGKSGRTWREADINYTSGFRNSDRILYSSDWLIYKTTDHYQTFTKIR

Variants of: B1
Conditions: Bacillus amyloliquefaciens; pH 6.3; 25 °C; Urea; Fluorescence; MES 450 mM; reversible: yes; structure 1BNI; whole UniProt chain shown

| Variant | ddG of mutation (higher = less stable) | denaturant m value | denaturant midpoint (higher = more stable) | unfolding free energy |
| --- | --- | --- | --- | --- |
| A79P | 4.12 kcal/mol | 1.89 kcal/mol/M | 2.4 M | 4.71 kcal/mol |
| A79G | 0.65 kcal/mol | 1.98 kcal/mol/M | 4.1 M | 8.18 kcal/mol |
| A79C | 1.85 kcal/mol | 1.71 kcal/mol/M | 4 M | 6.98 kcal/mol |
| A79W | 1.14 kcal/mol | 1.88 kcal/mol/M | 4 M | 7.69 kcal/mol |
| A79D | 0.41 kcal/mol | 1.99 kcal/mol/M | 4.2 M | 8.42 kcal/mol |
| A79K | 0.1 kcal/mol | 1.94 kcal/mol/M | 4.5 M | 8.73 kcal/mol |
| A79V | 0.34 kcal/mol | 2.05 kcal/mol/M | 4.1 M | 8.49 kcal/mol |
| A79H | 0.7 kcal/mol | 1.94 kcal/mol/M | 4.1 M | 8.13 kcal/mol |
| A79R | 0.2 kcal/mol | 1.91 kcal/mol/M | 4.5 M | 8.63 kcal/mol |
| A79M | 0.08 kcal/mol | 1.97 kcal/mol/M | 4.4 M | 8.75 kcal/mol |
| A79Q | 0.35 kcal/mol | 1.95 kcal/mol/M | 4.3 M | 8.48 kcal/mol |
| A79F | 0.43 kcal/mol | 1.98 kcal/mol/M | 4.2 M | 8.4 kcal/mol |
| A79L | -0.08 kcal/mol | 2.02 kcal/mol/M | 4.4 M | 8.91 kcal/mol |
| A79E | -0.13 kcal/mol | 2.08 kcal/mol/M | 4.3 M | 8.96 kcal/mol |
| A79N | 0.33 kcal/mol | 2 kcal/mol/M | 4.2 M | 8.5 kcal/mol |
| A79S | 0.16 kcal/mol | 1.98 kcal/mol/M | 4.3 M | 8.67 kcal/mol |
| A79Y | 0.7 kcal/mol | 1.95 kcal/mol/M | 4.1 M | 8.13 kcal/mol |
